B1: Bi-LT-1 (antibody)
chain 1: not shown
chain 2: DIQMTQSPSSLSASVGDRVTITCRASQDISSRLTWLQQKPEKAPKRLIYATSSLDSGVPSRFSGSGSGTDFTLTISSLQPEDFATYYCLQYASSPLTFGGGTKVEIKRTVAAPSVFIFPPSDEQLKSGTASVVCLLNNFYPREAKVQWKVDNALQSGNSQESVTEQDSKDSTYSLSSTLTLSKADYEKHKVYACEVTHQGLSSPVTKSFNRGEC
B2: Bi-LT-3 (antibody)
chain 1: not shown
chain 2: B1 chain 2
B3: Bi-TPM-94A (antibody)
chain 1: not shown
chain 2: DIQMTQSPSFLSASVGDRVTITCKASQNVGTNVAWYQQKPGKAPKALIYSASYRYSGVPSRFSGSGSGTEFTLTISSLQPEDFATYYCQQYYSYPYTFGQGTKLEIKRTVAAPSVFIFPPSDEQLKSGTASVVCLLNNFYPREAKVQWKVDNALQSGNSQESVTEQDSKDSTYSLSSTLTLSKADYEKHKVYACEVTHQGLSSPVTKSFNRGEC
B4: Bi-TPM-94B (antibody)
chain 1: not shown
chain 2: B3 chain 2
B5: chimeric 2L2A antibody (antibody, V domains shown)
VH: EVQLQQSGPVLVKPGASVKMSCKASGYTLTDYYMNWMKQSHGKSLEWIGVINPYNGDTSCNQKFKGKATLTADKSSSTAYMELNSLTSDDSAVYYCVRDDGYYVHYFDYWGQGTTLTVSS
VL: DIQMTQSPSSLSASLGERVTLTCRASQDISSRLTWLQQEPDGTIKRLIYATSSLDSGVPKRFNGSRSGSDYSLTISSLESEDFVDYYCLQYASSPLTFGAGTKLELKR
B6: 2L2A.1 (antibody, V domains shown)
VH: QVQLVQSGAEVKKPGASVKVSCKASGYTLTDYYMNWMRQAPGQGLEWMGVINPYNGDTSYNQKFKGRVTMTRDTSTSTVYMELSSLRSEDTAVYYCVRDDGYYVHYFDYWGQGTLVTVSS
VL: DIQMTQSPSSLSASVGDRVTITCRASQDISSRLTWLQQEPEKAPKRLIYATSSLDSGVPKRFSGSGSGTDFTLTISSLQPEDFATYYCLQYASSPLTFGGGTKVEIK

How the values were obtained:
[1] = molecular target: T1, human TIGIT on transfected CHOK1 cells (human, UniProt Q495A1 22-244); assay: cell-based blocking of TIGIT/PVR
T1 chain: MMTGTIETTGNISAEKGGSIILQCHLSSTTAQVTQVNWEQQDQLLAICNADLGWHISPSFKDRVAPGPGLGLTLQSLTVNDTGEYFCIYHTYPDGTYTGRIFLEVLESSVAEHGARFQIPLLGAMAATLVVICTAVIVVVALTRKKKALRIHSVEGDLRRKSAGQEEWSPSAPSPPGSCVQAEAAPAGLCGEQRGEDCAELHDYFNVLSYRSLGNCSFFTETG

[2] = molecular target: T2, human LAG-3 fused to mouse IgG2a (huLAG-3-mIgG2a) (human, UniProt P18627 23-450); assay: cell-based blocking of LAG-3/MHC II
T2 chain: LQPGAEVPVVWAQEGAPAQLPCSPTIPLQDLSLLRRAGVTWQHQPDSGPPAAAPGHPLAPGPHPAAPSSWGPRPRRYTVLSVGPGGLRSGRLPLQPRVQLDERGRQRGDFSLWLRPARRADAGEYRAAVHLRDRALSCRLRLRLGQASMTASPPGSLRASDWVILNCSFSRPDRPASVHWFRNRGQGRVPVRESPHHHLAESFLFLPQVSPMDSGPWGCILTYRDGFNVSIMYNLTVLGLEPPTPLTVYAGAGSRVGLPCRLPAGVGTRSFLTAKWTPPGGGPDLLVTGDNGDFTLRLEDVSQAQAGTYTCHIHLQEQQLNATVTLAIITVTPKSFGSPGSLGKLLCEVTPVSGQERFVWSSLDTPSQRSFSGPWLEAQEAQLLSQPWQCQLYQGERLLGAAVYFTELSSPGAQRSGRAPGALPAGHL

[3] = molecular target: T3, His tagged human TIGIT protein (human, UniProt Q495A1 22-141); assay: sandwich ELISA; simultaneous binding of LAG-3-muFc and His-tagged TIGIT
T3 chain: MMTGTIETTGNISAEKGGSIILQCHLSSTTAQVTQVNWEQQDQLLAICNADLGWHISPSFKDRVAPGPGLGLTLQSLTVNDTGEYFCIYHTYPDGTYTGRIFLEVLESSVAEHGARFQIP

[4] = molecular target: His tagged human PD-1 protein (human, UniProt Q15116 25-167); assay: BLI
[5] = molecular target: T3, His tagged human TIGIT protein; assay: BLI
[6] = molecular target: T2, human LAG-3 fused to mouse IgG2a …; assay: cell-based blocking of LAG-3-muFc binding to MHC on Raji cells
[7] = molecular target: T4, His tagged human LAG-3 (human, UniProt P18627 23-450); assay: SPR
T4 chain: T2 chain

[8] = molecular target: T2, human LAG-3 fused to mouse IgG2a …; assay: SPR
[9] = molecular target: T5, human LAG-3 on CHO-K1 cells (human, UniProt P18627 23-525); assay: flow cytometry binding
T5 chain: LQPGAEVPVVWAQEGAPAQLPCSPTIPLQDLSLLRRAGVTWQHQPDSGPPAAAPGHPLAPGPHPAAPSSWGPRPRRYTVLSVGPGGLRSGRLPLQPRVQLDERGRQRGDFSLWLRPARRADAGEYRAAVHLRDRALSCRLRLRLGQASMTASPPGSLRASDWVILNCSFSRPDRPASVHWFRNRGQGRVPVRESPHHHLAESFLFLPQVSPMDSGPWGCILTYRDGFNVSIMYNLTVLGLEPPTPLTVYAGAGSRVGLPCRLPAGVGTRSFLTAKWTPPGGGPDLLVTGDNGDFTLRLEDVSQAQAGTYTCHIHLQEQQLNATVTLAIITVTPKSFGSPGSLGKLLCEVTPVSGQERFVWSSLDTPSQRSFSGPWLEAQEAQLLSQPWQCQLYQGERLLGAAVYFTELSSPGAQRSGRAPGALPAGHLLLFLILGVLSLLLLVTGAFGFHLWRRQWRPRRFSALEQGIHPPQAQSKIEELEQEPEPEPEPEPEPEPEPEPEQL

His tagged human PD-1 protein, sequence (Q15116 25-167): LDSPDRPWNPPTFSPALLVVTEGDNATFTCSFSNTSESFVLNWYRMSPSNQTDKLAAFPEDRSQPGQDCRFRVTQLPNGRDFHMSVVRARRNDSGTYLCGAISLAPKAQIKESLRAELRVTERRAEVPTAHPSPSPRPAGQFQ

| Binder | IC50 [1] | IC50 [2] | EC50 [3] | Kd [4] | IC50 [6] | further results |
| --- | --- | --- | --- | --- | --- | --- |
| B1 | 0.24 nM | 0.7 nM | 0.0107 mg/L |  |  |  |
| B2 | 0.22 nM | 0.9 nM | 0.0108 mg/L |  |  |  |
| B3 |  |  |  | 2.9 nM |  |  |
| B4 | 0.13 nM |  |  | 2.7 nM |  | Kd [5]: 1.7 nM |
| B5 |  |  |  |  | 3.74 nM |  |
| B6 |  |  |  |  | 1.97 nM | Kd [7]: 1.42 nM; Kd [8]: 0.001 nM; EC50 [9]: 1.48 nM |

— patent US12404336 (dated 2025)
